The values below come from patent publication US20230257470A1 (published 2023).

Assay [1] addresses T1, human FcγRIIa type H (human, UniProt P12318 36-217).
T1 construct: also called FcyRIIaH; FcγRIIa(H)
T1 sequence: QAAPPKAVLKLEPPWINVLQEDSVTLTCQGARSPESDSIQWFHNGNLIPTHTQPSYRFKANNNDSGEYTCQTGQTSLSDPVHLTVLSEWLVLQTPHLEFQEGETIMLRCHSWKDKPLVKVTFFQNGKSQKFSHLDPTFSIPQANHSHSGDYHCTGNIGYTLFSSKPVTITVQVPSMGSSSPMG
Put plainly: SPR (Biacore), FcγR over captured antibody; binding amount relative to IL6R-BF648/IL6R-L x100. In general terms: Surface plasmon resonance follows binding to a sensor surface in real time, without labels.

Assay [2] has as its target T2, human FcγRIa (human, UniProt P12314 16-292, limits assumed).
T2 construct: also called FcyRIa; CD64
The assay is described as above.
T2 sequence (P12314 16-292 limits assumed): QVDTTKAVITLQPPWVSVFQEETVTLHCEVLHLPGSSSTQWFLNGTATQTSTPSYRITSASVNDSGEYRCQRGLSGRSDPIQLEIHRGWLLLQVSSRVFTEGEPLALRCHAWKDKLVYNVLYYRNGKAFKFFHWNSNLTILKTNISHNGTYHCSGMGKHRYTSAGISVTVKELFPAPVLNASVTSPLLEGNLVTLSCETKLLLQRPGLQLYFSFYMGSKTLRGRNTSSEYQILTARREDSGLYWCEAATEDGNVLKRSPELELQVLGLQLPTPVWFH

In assay [3] the target is T3, human FcγRIIIa type V (human, UniProt P08637 17-208, limits assumed).
T3 construct: also called FcyRIIIa; FcγRIIIaV
Described as above.
T3 sequence (P08637 other isoform, or with tags, fused parts or gaps limits assumed): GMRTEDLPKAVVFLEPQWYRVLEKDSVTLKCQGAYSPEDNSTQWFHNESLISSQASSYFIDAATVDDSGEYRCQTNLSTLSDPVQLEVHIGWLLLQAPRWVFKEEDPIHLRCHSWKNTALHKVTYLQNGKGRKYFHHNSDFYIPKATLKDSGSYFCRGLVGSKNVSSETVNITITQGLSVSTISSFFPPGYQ

In assay [4] the target is T4, human FcγRIIb (human, UniProt P31994 43-217, limits assumed).
T4 construct: also called FcyRIfb; FcγIIB
T4 sequence: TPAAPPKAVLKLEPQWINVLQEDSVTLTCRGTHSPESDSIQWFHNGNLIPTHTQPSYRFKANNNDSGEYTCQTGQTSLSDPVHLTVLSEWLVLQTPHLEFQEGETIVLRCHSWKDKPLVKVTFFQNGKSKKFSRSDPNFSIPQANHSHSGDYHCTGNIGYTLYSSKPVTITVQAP
Described as above.

The target of assay [5] is T5, human FcγRIIa type R (human, UniProt P12318 36-217).
T5 construct: also called FcgRIIaR; FcγRIIa(R)
T5 chain: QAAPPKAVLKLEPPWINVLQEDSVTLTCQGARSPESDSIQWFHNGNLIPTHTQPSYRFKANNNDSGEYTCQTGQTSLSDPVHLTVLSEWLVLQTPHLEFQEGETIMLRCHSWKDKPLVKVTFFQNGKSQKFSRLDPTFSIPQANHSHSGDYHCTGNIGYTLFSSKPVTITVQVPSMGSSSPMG
Put plainly: SPR (Biacore), FcγR over captured antibody; binding amount divided by that of IL6R-BF648/IL6R-L x 100.
Experimental: (§1) According to the following method, relative binding activities were calculated for the results of analyzing interactions with the respective FcγRs.

The target in assay [6] is T6, human FcγRIa (human, UniProt P12314 16-292, limits assumed).
T6 construct: also called FcgRIa; FcγRI (CD64)
The assay is described as above.
T6 sequence (P12314 16-292 limits assumed): as the sequence (P12314 16-292 limits assumed) above
Experimental: as §1

Assay [7] deals with T7, human FcγRIIIa type V (human, UniProt P08637 17-208, limits assumed).
T7 construct: also called FcgRIIIaV; FcγRIIIa(V)
Described as above.
T7 sequence (P08637 other isoform, or with tags, fused parts or gaps limits assumed): as the sequence (P08637 other isoform, or with tags, fused parts or gaps limits assumed) above
Experimental: as §1

Assay [8] has as its target T8, human FcγRIIa type H (human, UniProt P12318 36-217).
T8 construct: also called FcgRIIaH; FcγRIIa(H)
T8 sequence: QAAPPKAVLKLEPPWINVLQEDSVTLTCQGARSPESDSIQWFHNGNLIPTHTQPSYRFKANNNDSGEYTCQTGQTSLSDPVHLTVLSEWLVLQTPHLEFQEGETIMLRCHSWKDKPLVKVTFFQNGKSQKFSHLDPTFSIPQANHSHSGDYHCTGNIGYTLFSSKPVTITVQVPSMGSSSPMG
The description is as above.
Experimental: as §1

The target in assay [9] is T9, human FcγRIIb (human, UniProt P31994 43-217, limits assumed).
T9 construct: also called FcgRIIb; FcγIIB
T9 sequence: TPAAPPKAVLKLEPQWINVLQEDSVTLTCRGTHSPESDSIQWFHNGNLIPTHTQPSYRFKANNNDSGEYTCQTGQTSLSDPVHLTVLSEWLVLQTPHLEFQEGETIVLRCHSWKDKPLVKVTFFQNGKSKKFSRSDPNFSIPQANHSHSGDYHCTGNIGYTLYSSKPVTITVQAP
The assay is described as above.
Experimental: as §1

B1: IL6R-2B128/IL6R-L (antibody, human IgG1, name in EU numbering)
heavy: QVQLQESGPGLVKPSETLSLTCAVSGHSISHDHAWSWVRQPPGEGLEWIGFISYSGITNYNPSLQGRVTISRDNSKNTLYLQMNSLRAEDTAVYYCARSLARTTAMDYWGEGTLVTVSSASTKGPSVFPLAPSSKSTSGGTAALGCLVKDYFPEPVTVSWNSGALTSGVHTFPAVLQSSGLYSLSSVVTVPSSSLGTQTYICNVNHKPSNTKVDKKVEPKSCDKTHTCPPCPAPELLGGDSVFLFPPKPKDTLMISRTPEVTCVVVDVSHEDPEVKFNWYVDGVEVHNAKTKPREEQDNSTYRVVSVLTVLHQDWLNGKEYKCKVSNKALPAPIEKTISKAKGQPREPQVYTLPPSRDELTKNQVSLTCLVKGFYPSDIAVEWESNGQPENNYKTTPPVLDSDGSFFLYSKLTVDKSRWQQGNVFSCSVMHEALHNHYTQESLSLSP
light: DIQMTQSPSSLSASVGDRVTITCRASQDISSYLNWYQQKPGKAPKLLIYYTSRLHSGVPSRFSGSGSGTDFTFTISSLQPEDIATYYCQQGNTLPYTFGQGTKVEIK
On to B1, for which the relative binding is 37 % of IL6R-BF648/IL6R-L in assay [1], 95 % of IL6R-BF648/IL6R-L in [2] and 96 % of IL6R-BF648/IL6R-L in assay [3].

B2: IL6R-BP126/IL6R-L (antibody, human IgG1, name in EU numbering)
heavy: QVQLQESGPGLVKPSETLSLTCAVSGHSISHDHAWSWVRQPPGEGLEWIGFISYSGITNYNPSLQGRVTISRDNSKNTLYLQMNSLRAEDTAVYYCARSLARTTAMDYWGEGTLVTVSSASTKGPSVFPLAPSSKSTSGGTAALGCLVKDYFPEPVTVSWNSGALTSGVHTFPAVLQSSGLYSLSSVVTVPSSSLGTQTYICNVNHKPSNTKVDKKVEPKSCDKTHTCPPCPAPELLGGDSVFLFPPKPKDTLMISRTPEVTCVVVDVSHEDPEVKFNWYVDGVEVHNAKTKPREEQYNSTYRVVSVLTVLHQDWLNGKEYKCKVSNLALPAPIEKTISKAKGQPREPQVYTLPPSRDELTKNQVSLTCLVKGFYPSDIAVEWESNGQPENNYKTTPPVLDSDGSFFLYSKLTVDKSRWQQGNVFSCSVMHEALHNHYTQESLSLSP
light: DIQMTQSPSSLSASVGDRVTITCRASQDISSYLNWYQQKPGKAPKLLIYYTSRLHSGVPSRFSGSGSGTDFTFTISSLQPEDIATYYCQQGNTLPYTFGQGTKVEIK
Consider B2, for which the figures for the relative binding in assay [1] and in assay [2] were 132 % of IL6R-BF648/IL6R-L and 113 % of IL6R-BF648/IL6R-L, respectively.

B3: IL6R-BP912/IL6R-L (antibody, human IgG1, name in EU numbering)
heavy: QVQLQESGPGLVKPSETLSLTCAVSGHSISHDHAWSWVRQPPGEGLEWIGFISYSGITNYNPSLQGRVTISRDNSKNTLYLQMNSLRAEDTAVYYCARSLARTTAMDYWGEGTLVTVSSASTKGPSVFPLAPSSKSTSGGTAALGCLVKDYFPEPVTVSWNSGALTSGVHTFPAVLQSSGLYSLSSVVTVPSSSLGTQTYICNVNHKPSNTKVDKKVEPKSCDKTHTCPPCPAPELLGGDSVFLFPPKPKDTLMISRTPEVTCVVVDVSHEDPEVKFNWYVDGVEVHNAKTKPREEQYNSTYRVVSVLTVLHQDWLNGKEYKCKVSNKALPRPIEKTISKAKGQPREPQVYTLPPSRDELTKNQVSLTCLVKGFYPSDIAVEWESNGQPENNYKTTPPVLDSDGSFFLYSKLTVDKSRWQQGNVFSCSVMHEALHNHYTQESLSLSP
light: DIQMTQSPSSLSASVGDRVTITCRASQDISSYLNWYQQKPGKAPKLLIYYTSRLHSGVPSRFSGSGSGTDFTFTISSLQPEDIATYYCQQGNTLPYTFGQGTKVEIK
For the molecule B3, the relative binding in [1] is 93 % of IL6R-BF648/IL6R-L; in assay [2], 60 % of IL6R-BF648/IL6R-L; in [3], 97 % of IL6R-BF648/IL6R-L.

B4: IL6R-BP120/IL6R-L (antibody, human IgG1, name in EU numbering)
heavy: QVQLQESGPGLVKPSETLSLTCAVSGHSISHDHAWSWVRQPPGEGLEWIGFISYSGITNYNPSLQGRVTISRDNSKNTLYLQMNSLRAEDTAVYYCARSLARTTAMDYWGEGTLVTVSSASTKGPSVFPLAPSSKSTSGGTAALGCLVKDYFPEPVTVSWNSGALTSGVHTFPAVLQSSGLYSLSSVVTVPSSSLGTQTYICNVNHKPSNTKVDKKVEPKSCDKTHTCPPCPAPELLGGDSVFLFPPKPKDTLMISRTPEVTCVVVDVSHEDPEVKFNWYVDGVEVHNAKTKPREEQYNSTYRVVSVLTVLHQDWLNGKEYKCKVSNEALPAPIEKTISKAKGQPREPQVYTLPPSRDELTKNQVSLTCLVKGFYPSDIAVEWESNGQPENNYKTTPPVLDSDGSFFLYSKLTVDKSRWQQGNVFSCSVMHEALHNHYTQESLSLSP
light: DIQMTQSPSSLSASVGDRVTITCRASQDISSYLNWYQQKPGKAPKLLIYYTSRLHSGVPSRFSGSGSGTDFTFTISSLQPEDIATYYCQQGNTLPYTFGQGTKVEIK
On to B4, for which the relative binding in assay [4] is 114 % of IL6R-BF648/IL6R-L; in assay [2] it was 125 % of IL6R-BF648/IL6R-L.

B5: IL6R-BP112/IL6R-L (antibody, human IgG1, name in EU numbering)
heavy: QVQLQESGPGLVKPSETLSLTCAVSGHSISHDHAWSWVRQPPGEGLEWIGFISYSGITNYNPSLQGRVTISRDNSKNTLYLQMNSLRAEDTAVYYCARSLARTTAMDYWGEGTLVTVSSASTKGPSVFPLAPSSKSTSGGTAALGCLVKDYFPEPVTVSWNSGALTSGVHTFPAVLQSSGLYSLSSVVTVPSSSLGTQTYICNVNHKPSNTKVDKKVEPKSCDKTHTCPPCPAPELLGGDSVFLFPPKPKDTLMISRTPEVTCVVVDVSHEDGEVKFNWYVDGVEVHNAKTKPREEQYNSTYRVVSVLTVLHQDWLNGKEYKCKVSNKALPAPIEKTISKAKGQPREPQVYTLPPSRDELTKNQVSLTCLVKGFYPSDIAVEWESNGQPENNYKTTPPVLDSDGSFFLYSKLTVDKSRWQQGNVFSCSVMHEALHNHYTQESLSLSP
light: DIQMTQSPSSLSASVGDRVTITCRASQDISSYLNWYQQKPGKAPKLLIYYTSRLHSGVPSRFSGSGSGTDFTFTISSLQPEDIATYYCQQGNTLPYTFGQGTKVEIK
As for B5, the relative binding in [4] is 157 % of IL6R-BF648/IL6R-L; in [1] it was 113 % of IL6R-BF648/IL6R-L; in [2] it was 119 % of IL6R-BF648/IL6R-L.

B6: IL6R-BP117/IL6R-L (antibody, human IgG1, name in EU numbering)
heavy: QVQLQESGPGLVKPSETLSLTCAVSGHSISHDHAWSWVRQPPGEGLEWIGFISYSGITNYNPSLQGRVTISRDNSKNTLYLQMNSLRAEDTAVYYCARSLARTTAMDYWGEGTLVTVSSASTKGPSVFPLAPSSKSTSGGTAALGCLVKDYFPEPVTVSWNSGALTSGVHTFPAVLQSSGLYSLSSVVTVPSSSLGTQTYICNVNHKPSNTKVDKKVEPKSCDKTHTCPPCPAPELLGGDSVFLFPPKPKDTLMISRTPEVTCVVVDVSHEDPEVKFNWYVDGVEVHNAKTKPREEQYNSTYRVVSVLTVLHQDWLNGKEYKCKVSNDALPAPIEKTISKAKGQPREPQVYTLPPSRDELTKNQVSLTCLVKGFYPSDIAVEWESNGQPENNYKTTPPVLDSDGSFFLYSKLTVDKSRWQQGNVFSCSVMHEALHNHYTQESLSLSP
light: DIQMTQSPSSLSASVGDRVTITCRASQDISSYLNWYQQKPGKAPKLLIYYTSRLHSGVPSRFSGSGSGTDFTFTISSLQPEDIATYYCQQGNTLPYTFGQGTKVEIK
B6: the relative binding in assay [4] is 118 % of IL6R-BF648/IL6R-L; in assay [1], 96 % of IL6R-BF648/IL6R-L; in assay [2] it was 124 % of IL6R-BF648/IL6R-L.

B7: IL6R-BP078/IL6R-L (antibody, human IgG1, name in EU numbering)
heavy: QVQLQESGPGLVKPSETLSLTCAVSGHSISHDHAWSWVRQPPGEGLEWIGFISYSGITNYNPSLQGRVTISRDNSKNTLYLQMNSLRAEDTAVYYCARSLARTTAMDYWGEGTLVTVSSASTKGPSVFPLAPSSKSTSGGTAALGCLVKDYFPEPVTVSWNSGALTSGVHTFPAVLQSSGLYSLSSVVTVPSSSLGTQTYICNVNHKPSNTKVDKKVEPKSCDKTHTCPPCPAPELLGGDSVFLFPPKPKDTLMISRTPEVTCVVVDVSHEDPEVKFNWYVDGVEVHNAKTKPREEQYNSTYRVVSVLTVLHQDWLNGKEYKCKVSNKALPMPIEKTISKAKGQPREPQVYTLPPSRDELTKNQVSLTCLVKGFYPSDIAVEWESNGQPENNYKTTPPVLDSDGSFFLYSKLTVDKSRWQQGNVFSCSVMHEALHNHYTQESLSLSP
light: DIQMTQSPSSLSASVGDRVTITCRASQDISSYLNWYQQKPGKAPKLLIYYTSRLHSGVPSRFSGSGSGTDFTFTISSLQPEDIATYYCQQGNTLPYTFGQGTKVEIK
B7: the relative binding was 89 % of IL6R-BF648/IL6R-L in [1], 106 % of IL6R-BF648/IL6R-L in assay [2] and 91 % of IL6R-BF648/IL6R-L in assay [3].

B8: IL6R-G1d/IL6R-L (antibody, human IgG1)
heavy: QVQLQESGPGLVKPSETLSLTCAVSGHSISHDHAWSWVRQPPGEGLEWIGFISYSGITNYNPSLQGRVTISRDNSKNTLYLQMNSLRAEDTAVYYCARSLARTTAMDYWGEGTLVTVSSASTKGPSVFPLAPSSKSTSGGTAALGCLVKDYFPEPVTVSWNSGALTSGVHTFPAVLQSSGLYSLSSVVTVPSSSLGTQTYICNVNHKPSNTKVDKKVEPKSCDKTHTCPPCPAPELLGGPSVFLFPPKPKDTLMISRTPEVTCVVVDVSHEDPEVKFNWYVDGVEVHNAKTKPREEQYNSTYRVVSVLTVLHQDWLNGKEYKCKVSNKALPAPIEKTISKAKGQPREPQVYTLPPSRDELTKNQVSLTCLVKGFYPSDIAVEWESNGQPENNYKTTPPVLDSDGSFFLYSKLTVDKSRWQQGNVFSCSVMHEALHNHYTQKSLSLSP
light: DIQMTQSPSSLSASVGDRVTITCRASQDISSYLNWYQQKPGKAPKLLIYYTSRLHSGVPSRFSGSGSGTDFTFTISSLQPEDIATYYCQQGNTLPYTFGQGTKVEIK
notes: Anti-human IL-6 receptor human IgG1 with G1d constant region (C-terminal Gly and Lys removed); template used for producing IL6R-B3; also called IgG1; copies: 2 + 2
Turning to B8, the relative binding activity is 650 relative (IL6R-BF648/IL6R-L = 100) in [5]; 140 relative (IL6R-BF648/IL6R-L = 100) in assay [6]; 3350 relative (IL6R-BF648/IL6R-L = 100) in assay [7]; 1670 relative (IL6R-BF648/IL6R-L = 100) in assay [8]; 62 relative (IL6R-BF648/IL6R-L = 100) in assay [9].
